Results published in patent US20080057063A1 (published 2008).
Where two headings read alike, the source gives them in different places.

Legend:
[1] = target: T1, human αVβ6 integrin on cells (human, UniProt P06756 31-1048; P18564 22-788); experiment: FACS, 293T-αVβ6 cells, antibody at 20 ug/ml
T1 construct: whole, on cells; Heterodimer on transfected cells (HEK 293, K562, 293T) or on αVβ6-positive tumour lines (HT29, Detroit-562); also called αVβ6 on HEK 293, K562, 293T-αVβ6, HT29, Detroit-562 cells

[2] = target: T2, α5β1 integrin (on K562 cells) (UniProt P08648 42-1049; P05556 21-798, limits assumed); experiment: cell-based or functional assay
[3] = target: T1, human αVβ6 integrin on cells; experiment: FACS, 293T-αVβ6 cells, antibody at 5 ug/ml
[4] = target: T1, human αVβ6 integrin on cells; experiment: FACS, 293T-αVβ6 cells, antibody at 1.25 ug/ml
[5] = target: T1, human αVβ6 integrin on cells; experiment: FACS titration on K562 cells expressing human αVβ6 (as Example 18); 95% CI ±15.9 pM
[6] = target: T1, human αVβ6 integrin on cells; experiment: cell-based or functional assay
[7] = target: T1, human αVβ6 integrin on cells; experiment: FACS titration on K562 cells expressing human αVβ6 (as Example 18)
[8] = target: T3, α4β1 integrin (on J6.77 cells) (UniProt P13612 34-1032; P05556 21-798, limits assumed); experiment: cell-based or functional assay
cynomolgus αVβ6 on cells = target: T4, cynomolgus αVβ6 on cells (cynomolgus, UniProt A0A2K5WCD3 31-1048; A0A2K5TZ36 22-787); experiment: FACS, HEK-293 transfected with cynomolgus αV and β6
T4 construct: whole, on cells; also called macaque αVβ6; Mac AVB6

[9] = target: T1, human αVβ6 integrin on cells; experiment: cell-based or functional assay; remark: listed apart in the source
[10] = target: T1, human αVβ6 integrin on cells; experiment: FACS titration on K562 cells expressing human αVβ6; 95% CI ±22.7 pM
[11] = target: T2, α5β1 integrin (on K562 cells); experiment: cell-based or functional assay; remark: listed apart in the source
[12] = target: T1, human αVβ6 integrin on cells; experiment: cell-based or functional assay; remark: listed apart in the source
soluble αVβ6 = target: T5, soluble αVβ6 (human, UniProt P06756 31-992; P18564 22-709); experiment: Biacore, mAb captured on anti-human IgG, soluble αVβ6 injected, 1:1 fit
T5 construct: extracellular domain; also called soluble αVβ6 protein; soluble antigen

[13] = target: T3, α4β1 integrin (on J6.77 cells); experiment: cell-based or functional assay; remark: listed apart in the source
[14] = target: T1, human αVβ6 integrin on cells; experiment: FMAT, HEK 293 cells overexpressing αVβ6, supernatant
[15] = target: T6, mouse αV (HEK-293 cells transfected with mouse αV alone) (mouse, UniProt P43406 31-1044); experiment: FACS, HEK-293 transfected with mouse αV
T6 construct: whole, on cells; Single chain transfected into HEK-293 cells; also called Mouse alphaV

[16] = target: T7, human αV on parental A375M cells, which express αVβ3 and αVβ5, but not αVβ6 (human, UniProt P06756 31-1048); experiment: FACS, parental A375M cells (αVβ3, αVβ5)
T7 construct: whole, on cells; Two heterodimers (αVβ3, αVβ5) on one cell line; also called αVβ3 or αVβ5 integrins

[17] = target: T7, human αV on parental A375M cells, which …; experiment: cell-based or functional assay

T2 sequence (P08648 42-1049 limits assumed, chain 1 of 2): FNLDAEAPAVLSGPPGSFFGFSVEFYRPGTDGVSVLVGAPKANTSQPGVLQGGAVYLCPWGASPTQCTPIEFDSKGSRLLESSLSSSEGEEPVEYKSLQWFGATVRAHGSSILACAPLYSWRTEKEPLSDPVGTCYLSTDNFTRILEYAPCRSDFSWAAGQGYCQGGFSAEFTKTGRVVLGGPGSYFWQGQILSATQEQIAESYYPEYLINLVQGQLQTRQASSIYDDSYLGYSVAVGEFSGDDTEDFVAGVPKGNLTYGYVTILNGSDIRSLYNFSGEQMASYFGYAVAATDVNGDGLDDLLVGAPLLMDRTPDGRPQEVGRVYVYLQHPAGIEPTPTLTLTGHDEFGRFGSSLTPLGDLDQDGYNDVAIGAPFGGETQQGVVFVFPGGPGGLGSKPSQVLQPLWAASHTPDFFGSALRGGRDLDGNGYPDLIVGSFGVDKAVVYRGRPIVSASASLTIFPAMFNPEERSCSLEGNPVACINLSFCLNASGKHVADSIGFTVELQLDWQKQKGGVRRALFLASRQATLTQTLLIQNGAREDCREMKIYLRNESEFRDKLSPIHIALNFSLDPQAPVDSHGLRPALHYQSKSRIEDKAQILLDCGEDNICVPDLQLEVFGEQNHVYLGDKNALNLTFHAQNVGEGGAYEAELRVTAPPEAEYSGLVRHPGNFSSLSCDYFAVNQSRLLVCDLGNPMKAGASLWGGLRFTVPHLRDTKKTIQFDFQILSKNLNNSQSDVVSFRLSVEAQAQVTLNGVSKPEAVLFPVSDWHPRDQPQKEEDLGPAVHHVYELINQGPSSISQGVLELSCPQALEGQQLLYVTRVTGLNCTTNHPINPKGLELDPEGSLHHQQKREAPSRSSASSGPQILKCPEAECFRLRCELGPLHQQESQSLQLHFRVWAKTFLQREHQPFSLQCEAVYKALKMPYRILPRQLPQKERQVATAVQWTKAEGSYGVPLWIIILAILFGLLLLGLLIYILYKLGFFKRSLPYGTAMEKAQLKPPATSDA
T2 sequence (P05556 21-798 limits assumed, chain 2 of 2): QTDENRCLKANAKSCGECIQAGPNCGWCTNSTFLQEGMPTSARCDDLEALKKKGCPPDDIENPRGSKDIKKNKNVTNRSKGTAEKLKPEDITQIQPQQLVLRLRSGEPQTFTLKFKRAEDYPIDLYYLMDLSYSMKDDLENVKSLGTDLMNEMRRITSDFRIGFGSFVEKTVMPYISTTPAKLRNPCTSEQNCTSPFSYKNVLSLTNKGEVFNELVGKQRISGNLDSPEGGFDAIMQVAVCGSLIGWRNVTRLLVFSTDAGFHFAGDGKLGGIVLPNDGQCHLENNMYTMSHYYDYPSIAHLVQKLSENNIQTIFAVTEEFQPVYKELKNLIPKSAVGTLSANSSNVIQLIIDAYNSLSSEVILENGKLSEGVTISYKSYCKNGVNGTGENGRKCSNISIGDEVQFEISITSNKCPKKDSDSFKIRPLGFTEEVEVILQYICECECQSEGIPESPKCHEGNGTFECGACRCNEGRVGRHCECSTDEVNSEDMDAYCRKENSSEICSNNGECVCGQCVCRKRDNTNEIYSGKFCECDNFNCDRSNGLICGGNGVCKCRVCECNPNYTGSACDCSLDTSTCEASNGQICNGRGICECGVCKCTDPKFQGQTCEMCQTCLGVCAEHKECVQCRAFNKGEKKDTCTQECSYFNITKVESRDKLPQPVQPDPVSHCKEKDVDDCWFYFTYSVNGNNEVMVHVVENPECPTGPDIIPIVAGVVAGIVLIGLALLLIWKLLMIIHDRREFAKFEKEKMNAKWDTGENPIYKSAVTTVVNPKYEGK
T7 sequence (P06756 31-1048 A375M): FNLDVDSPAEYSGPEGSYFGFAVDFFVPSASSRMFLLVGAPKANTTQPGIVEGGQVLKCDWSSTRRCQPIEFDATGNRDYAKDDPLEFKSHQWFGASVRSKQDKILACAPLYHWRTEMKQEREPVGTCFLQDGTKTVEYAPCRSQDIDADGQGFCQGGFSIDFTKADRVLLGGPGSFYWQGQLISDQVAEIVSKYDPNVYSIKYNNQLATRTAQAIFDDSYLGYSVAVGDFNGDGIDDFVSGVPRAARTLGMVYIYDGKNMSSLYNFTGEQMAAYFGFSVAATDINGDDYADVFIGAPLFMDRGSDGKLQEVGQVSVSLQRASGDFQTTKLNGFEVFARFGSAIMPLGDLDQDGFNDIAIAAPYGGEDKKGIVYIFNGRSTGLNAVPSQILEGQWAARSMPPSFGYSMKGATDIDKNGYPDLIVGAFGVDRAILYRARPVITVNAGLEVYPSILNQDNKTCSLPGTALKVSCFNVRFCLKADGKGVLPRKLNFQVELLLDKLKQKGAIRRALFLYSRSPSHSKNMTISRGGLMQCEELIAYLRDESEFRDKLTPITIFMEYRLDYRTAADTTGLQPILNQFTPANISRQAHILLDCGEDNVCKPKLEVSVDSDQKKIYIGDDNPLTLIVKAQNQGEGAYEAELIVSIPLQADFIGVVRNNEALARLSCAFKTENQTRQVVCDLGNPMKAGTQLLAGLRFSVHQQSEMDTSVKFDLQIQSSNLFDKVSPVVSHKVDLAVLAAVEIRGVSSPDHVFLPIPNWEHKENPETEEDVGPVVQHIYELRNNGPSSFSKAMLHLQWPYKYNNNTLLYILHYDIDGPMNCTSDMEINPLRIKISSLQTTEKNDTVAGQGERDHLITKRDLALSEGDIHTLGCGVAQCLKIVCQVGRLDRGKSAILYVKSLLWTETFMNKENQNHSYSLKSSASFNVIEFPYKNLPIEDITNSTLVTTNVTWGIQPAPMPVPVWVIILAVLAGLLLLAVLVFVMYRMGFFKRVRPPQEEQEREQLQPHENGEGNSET
T1 sequence (P06756 31-1048, chain 1 of 2): as the sequence (P06756 31-1048 A375M) above, with M345A counted along it
T1 sequence (P18564 22-788, chain 2 of 2): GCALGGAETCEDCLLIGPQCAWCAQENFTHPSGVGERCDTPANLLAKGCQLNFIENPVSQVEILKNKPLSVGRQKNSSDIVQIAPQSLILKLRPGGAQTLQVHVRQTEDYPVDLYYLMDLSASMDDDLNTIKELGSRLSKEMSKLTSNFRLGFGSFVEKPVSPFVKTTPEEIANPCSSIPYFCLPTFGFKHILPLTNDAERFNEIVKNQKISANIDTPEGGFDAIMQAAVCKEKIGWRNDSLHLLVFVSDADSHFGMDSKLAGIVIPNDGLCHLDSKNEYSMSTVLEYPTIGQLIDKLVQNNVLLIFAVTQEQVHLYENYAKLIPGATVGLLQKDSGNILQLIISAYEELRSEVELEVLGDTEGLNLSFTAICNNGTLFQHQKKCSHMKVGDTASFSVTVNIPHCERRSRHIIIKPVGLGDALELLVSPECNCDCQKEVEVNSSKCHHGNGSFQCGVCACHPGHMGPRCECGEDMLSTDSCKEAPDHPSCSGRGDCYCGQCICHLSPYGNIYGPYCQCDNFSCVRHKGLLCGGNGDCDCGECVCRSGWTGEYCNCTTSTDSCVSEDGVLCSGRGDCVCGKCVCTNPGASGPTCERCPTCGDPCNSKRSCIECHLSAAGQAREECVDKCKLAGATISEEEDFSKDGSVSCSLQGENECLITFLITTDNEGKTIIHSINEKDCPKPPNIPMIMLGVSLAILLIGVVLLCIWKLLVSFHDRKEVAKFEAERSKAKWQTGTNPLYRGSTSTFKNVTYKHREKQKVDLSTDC
T6 sequence (P43406 31-1044): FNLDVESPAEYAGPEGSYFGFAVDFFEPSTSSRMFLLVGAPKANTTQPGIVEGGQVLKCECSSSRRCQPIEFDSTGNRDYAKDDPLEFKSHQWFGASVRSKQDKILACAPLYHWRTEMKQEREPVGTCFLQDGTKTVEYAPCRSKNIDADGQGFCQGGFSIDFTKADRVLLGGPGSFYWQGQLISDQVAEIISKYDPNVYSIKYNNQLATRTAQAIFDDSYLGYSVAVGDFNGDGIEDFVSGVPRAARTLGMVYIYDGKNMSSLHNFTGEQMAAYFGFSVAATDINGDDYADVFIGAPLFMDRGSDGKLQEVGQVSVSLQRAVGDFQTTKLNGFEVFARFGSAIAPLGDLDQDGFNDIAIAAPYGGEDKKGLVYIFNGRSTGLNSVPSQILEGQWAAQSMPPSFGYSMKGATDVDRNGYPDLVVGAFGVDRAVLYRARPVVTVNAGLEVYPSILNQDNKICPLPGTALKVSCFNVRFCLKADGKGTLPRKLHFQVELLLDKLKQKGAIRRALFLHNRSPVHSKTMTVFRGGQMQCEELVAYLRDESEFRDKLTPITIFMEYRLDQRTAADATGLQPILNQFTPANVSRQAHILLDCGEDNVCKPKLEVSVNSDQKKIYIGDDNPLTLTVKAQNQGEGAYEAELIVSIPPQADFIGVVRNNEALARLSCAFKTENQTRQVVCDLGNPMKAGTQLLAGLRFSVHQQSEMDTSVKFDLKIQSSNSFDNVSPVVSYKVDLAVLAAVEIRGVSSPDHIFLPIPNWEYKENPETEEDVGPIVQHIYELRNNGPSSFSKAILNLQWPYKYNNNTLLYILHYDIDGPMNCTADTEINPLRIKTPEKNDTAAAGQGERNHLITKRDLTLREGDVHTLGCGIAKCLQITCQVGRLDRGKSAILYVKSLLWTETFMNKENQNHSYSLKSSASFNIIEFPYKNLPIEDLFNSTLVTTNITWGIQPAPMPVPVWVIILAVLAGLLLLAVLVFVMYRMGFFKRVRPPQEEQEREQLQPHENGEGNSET

B1: sc 264 RAD (antibody, V domains shown)
VH: QVQLQESGPGLVKPSQTLSLTCTVSGGSISSGGYYWSWIRQHPGKGLEWIGYIYYSGRTYNNPSLKSRVTISVDTSKNQFSLKLSSVTAADTAVYYCARVATGRADYHFYAMDVWGQGTTVTVSS
VL: SYELTQPSSVSVSPGQTARITCSGDVLAKKSARWFHQKPGQAPVLVIYKDSERPSGIPERFSGSSSGTTVTLTISGAQVEDEAAYYCYSAADNNLVFGGGTKLTVL
notes: Variable domains only
- Geometric Mean Shift [1]: 7240
- % Inhibition (K562 adhesion to fibronectin) [2]: 6%
- Geometric Mean Shift [3]: 6840
- Geometric Mean Shift [4]: 4890
- Kd [5]: 0.0463 nM
- IC50, n = 1 (HT29 adhesion to TGFβLAP) [6]: 0.013 µg/mL
- IC50, n = 2 (HT29 adhesion to TGFβLAP) [6]: 0.013 µg/mL
- IC50, n = 3 (HT29 adhesion to TGFβLAP) [6]: 0.039 µg/mL
- Kd [7]: < 0.05 nM
- Percent Inhibition (J6.77 adhesion to CS-1 peptide of fibronectin, 5 ug/ml) [8]: -2%

B2: sc 188 (antibody, V domains shown)
VH: QVQLQESGPGLVKPSQTLSLTCTVSGGSISSGVYYWTWIRQHPGNGLEWIGYIYYSGSTSYNPSLKSRVTISVDTSKKQFSLNLTSVTAADTAVYYCAREGPLRGDYYYGLDVWGQGTTVTVSS
VL: EIVLTQSPGTLSLSPGERATLSCRAGQTISSRYLAWYQQKPGQAPRPLIYGASSRATGIPDRFSGSGSGTDFTLTISRLEPEDFAVYYCQQYGSSPRTFGQGTKVEIK
- % Inhibition (K562 adhesion to fibronectin) [2]: -5%
- GeoMean (cynomolgus αVβ6 on cells): 23.9
- Assay 1 % Inhibition (HT29 adhesion to TGFβLAP) [9]: 99%
- Assay 2 % Inhibition (HT29 adhesion to TGFβLAP) [9]: 103%
- Average % Inhibition (HT29 adhesion to TGFβLAP) [9]: 101%
- Kd [10]: 0.0519 nM
- Percent Inhibition (K562 adhesion to FN9-10 peptide of fibronectin, 5 µg/ml) [11]: 5%
- IC50, n = 1 (HT29 adhesion to TGFβLAP) [6]: 0.125 µg/mL
- IC50, n = 2 (HT29 adhesion to TGFβLAP) [6]: 0.157 µg/mL
- IC50, n = 3 (HT29 adhesion to TGFβLAP) [6]: 0.064 µg/mL
- Estimated IC50, n = 1 (HT29 adhesion to TGFβLAP) [12]: 0.041 µg/mL
- Estimated IC50, n = 2 (HT29 adhesion to TGFβLAP) [12]: 0.026 µg/mL
- Kd (soluble αVβ6): 21.2 nM
- Percent Inhibition (J6.77 adhesion to CS-1 peptide of fibronectin, 5 ug/ml) [13]: -10%
- FMAT Count [14]: 127
- FMAT FL1 [14]: 628
- FMAT FL1 × Count [14]: 79800
- Percent Inhibition (J6.77 adhesion to CS-1 peptide of fibronectin, 5 ug/ml) [8]: 2%

B3: sc 133 (antibody, V domains shown)
VH: QVQLVQSGAEVKKPGASVKVSCKASGYTFTGYYMHWVRQAPGQGLEWMGWINPKSGDTNYAQKFQGRVTLTRDTSTSTAYMELSRLRSDDTAVYYCARRLDVWGQGTTVTVSS
VL: QSVLTQPPSVSAAPGQKVTISCSGSSSNIGNNYVSWYQQLPGTAPKLLIYDNNKRPSGIPDRFSGSKSGTSATLGITGLQTGDEADYYCGTWNSSLSAGYVFGTGTKVTV
- Percent Inhibition (K562 adhesion to FN9-10 peptide of fibronectin, 5 µg/ml) [11]: -12%
- percent of cells shifted [15]: 4%
- Percent Inhibition (J6.77 adhesion to CS-1 peptide of fibronectin, 5 ug/ml) [13]: -15%
- % Cells Shifted [16]: 24%
- GeoMean [16]: 1.79
- Percent Inhibition (A375M adhesion to osteopontin peptide, 5 µg/ml) [17]: 3%
